Assay: soluble on expression in E. coli; label from the status in PepcDB or PDB records

| Sequence | soluble on expression in E. coli |
| --- | --- |
| MFFKQFYEDNFSQASYLIGCQRTGEAMIIDPIRDLTKYLKVADKEGFTITKAAETHIHADFASGIRDVANKLNASIYVSDEGKDEFNYKNMPKQTHFVKHQDIIYLGKIKLEVLHTPGHPPESISFLLTDEGGGSSIPMGLFSGDFIFVGDVGRPDLLEKAVNVEGSTKIGAKQMYQSIQFAATLPDYIQIWPGHGAGSPCGKALGSLPTTTLGYEKINNWAFNVKDETSFIETLTLNQPAPPHHFSQMKKINQFGMQMYQPYNVYPSSSNTQTAFDLRSKEAFHGGHMHGTINIPFNKTFINQIGWYLDYDLEHHHHHH | soluble |
| MGSDKIHHHHHHMSFDRPEIYSAPVLQGESPNDDDNTEIIKSFKNFILEFRLDSQFIYRDQLRNNILVKNYSLTVNMEHLIGYNEDIYKKLSDEPSDIIPLFETAITQVAKRISILSRAQSANNNDKDPENTSMDTDSLLLNSLPTFQLILNSNANQIPLRDLDSEHVSKIVRLSGIIISTSVLSSRATYLSIMCRNCRHTTSITINNFNSITGNTVSLPRSCLSTIESESSMANESNIGDESTKKNCGPDPYIIIHESSKFIDQQFLKLQEIPELVPVGEMPRNLTMTCDRYLTNKVIPGTRVTIVGIYSIYNSKNGAGSGRSGGGNGGSGVAIRTPYIKILGIQSDVETSSIWNSVTMFTEEEEEEFLQLSRNPKLYEILTNSIAPSIFGNEDIKKAIVCLLMGGSKKILPDGMRLRGDINVLLLGDPGTAKSQLLKFVEKVSPIAVYTSGKGSSAAGLTASVQRDPMTREFYLEGGAMVLADGGVVCIDEFDKMRDEDRVAIHEAMEQQTISIAKAGITTVLNSRTSVLAAANPIYGRYDDLKSPGDNIDFQTTILSRFDMIFIVKDDHNEERDISIANHVINIHTGNANAMQNQQEENGSEISIEKMKRYITYCRLKCAPRLSPQAAEKLSSNFVTIRKQLLINELESTERSSIPITIRQLEAIIRITESLAKLELSPIAQERHVDEAIRLFQASTMDAASQDPIGGLNQASGTSLSEIRRFEQELKRRLPIGWSTSYQTLRREFVDTHRFSQLALDKALYALEKHETIQLRHQGQNIYRSGV | not soluble |
| MAAADIARQLGEDCRTVPLAGHVGFDSLPDQLVNKSVSQGFCFNILCVGETGLGKSTLMDTLFNTKFEGEPATHTQPGVQLQSNTYDLQESNVGLKLTIVSTVGFGDQINKEDSYKPIVEFIDAQFEAYLQEELKIRRVLHSYHDSRIHVCLYFIAPTGHSLKSLDLVTMKKLDSKVNIIPVIAKSDAISKSELAKFKIKITSELVSNGVQIYQFPTDDESVSEINGTMNAHLPFAVCSTEEVKIGNKMMRARQYPWGTVQVENEAHCDFVKLREMLIRVNMEDLREQTHARHYELYRRCKLEEMGFKDTDPDSKPFSLQETYEAKRNEFLGELQKKEEEMRQMFVQRVKEKEAELKEAEKELHEKFDRLKKLHQEEKKKLEDKKKCLDEEMNAFKQRKAAAELLQSQGSQAGGSQTLKRDKEKKNNPWLCIE | soluble |
| MVKLFIGNLPREATEQEIRSLFEQYGKVLECDIIKNYGFVHIEDKTAAEDAIRNLHHYKLHGVNINVEASKNKSKASTKLHVGNISPTCTNQELRAKFEEYGPVIECDIVKDYAFVHMERAEDAVEAIRGLDNTEFQGKRMHVQLSTSRLRTAPGMGDQSGCYRCGKEGHWSKECPVDRTGRVADFTEQYNEQYGAVRTPYTMGYGESMYYNDAYGALDYYKRYRVRSYEAVAAAAAASAYNYAEQTMSHLPQVQSTTVTSHLNSTSVDPYDRHLLPNSGAAATSAAMAAAAATTSSYYGRDRSPLRRAAAMLPTVGEGYGYGPESELSQASAATRNSLYDMARYEREQYVDRARYSAF | soluble |
| MDAFRLAPCGPLRGRLRVPGDKSVTHRGLMLLALAEGEGRLFYPLKAGDTLSTARVLQALGAEVREEGPHFLVRGRGLRFQEPEDVLDCGNAGTLMRLLLGLLAGQEGLFAVLTGDASLRRRPMGRVVAPLRAMGARVDGREEGERAPLAVRGAPLRGLRYTLPVPSAQVKSALLLAGLFAEGVTKVEEPTPTRDHTERLFRHFGLPLEVEGRKVRTWRTGPFPAKDLVVPGDFSSAAFFLVAALVTPGSEVVVEGVGLNPTRTGLLTVLKAMGADLEWQVLEGEAGEPVGWVRARHSLLKGVAVDPGLIPLMVDEVPVLAAAAAWAEGETYIPGLSELRVKESDRVRAIAENLRALGVEVEEGPDWLRIRGGGVRPGRVRPFHDHRIAMAFAVAGLPVGVEVEEPHWAEISYPGFFQDLLRLCAAS | soluble |
| MGSDKIHHHHHHMKKVAIVQSNYIPWKGYFDMIAAVDEFILYDDMQYTRRDWRNRNQIKTPQGVQWLTVPVLVKGKYHQKIRETEIDGTDWAAAHWKALVQNYRRSPHFTEIAAWLEPLYLAETFTHISQLNRRFIEAICNYLGIKTVIKNSWDYTLLDGKTERLADLCVQAGGTEYISGPAAKDYVDEQVFKENGIKLTWFDYIGYPEYQQLWGEFTHGVTILDLLLNCGKNAKRYMKYVE | not soluble |
| MKMKLTAAIIAAFVIIMGCAGGPKASKADELDLAIRDTSDYLNDNIPKGNKIIILNIQSDYASLSDYIIDELIANAVNDKIFKVVDRAQLEQIRAELNFQWSGEVDDKSALEIGKFLGAQTIVSGAISELGDRYRMRLRALNVQTSQVQGQYNRNIAAGKTIAALMKGGKSANTVYGGRTASGNANDTTAANQTPSRQPATPSSPQGSTKPVTTTYKIGDTGPAGGLIFYDKGNNIGGWRYLEAAPSDLGPNKFITEDPGSLPKNLYDLWEKTDGDKGRGVGKGKYNTEFLMGIAQARGGFNWAIRLCDEYELNGYNDWFMPSRDELNFMYGNLHMKGLGNFRLEQYWSSTGWQDTWGSYSAWYINFEDGTAAYQNASQPRRFRPIRQF | not soluble |
| MGSDKIHHHHHHMQVRRFGRTNWNVSEIGYGMWGASGWKGSDDSQSEQSLDLAVSKGVNFFDTAWGYGEGHSEQLLGKLVKRHQSKKIYVATKIPPMNFKWPSKKSYTIGECFPVSHIKEYTETSLKNLGVEKIDLMQFHVWEDAWATDESWQRAVEDLQKEGKVDAFGISVNRWEPENCLETLKTGLIDSVQVIYNIFDQAPEDALLPLCKKLDIAVIARVPFDEGTLTGTITKDTTFEEGDWRASYFVPENLISSAEHADRLRPILPSGMTMAEMALRFILMNDDIATTIPGMRKERNVLANTGVSDGKKLSLDLYNELKKHRWDREPTSWSQ | not soluble |
| MGHHHHHHGGHMSLAQNDHETVDMLLVGAGIMSATLAVLLKELDPNLKMEVVELQESGAIESSNPWNNAGTGHAGLCELNYTPQSADGSIDIKKAVGINTMFEVSKQLWSHLVAKGTFGSPKTFINPVPHLSFVRGSEGIAYLKKRFESLTKHHAFETMVYSEDKATLAEWMPLMMPGRPADEAIAATRVEGGTDVNFGALTNQLLQHLAQQPGAQIRYNQKVTHLRRADNGWRVTVKDTRNGGDREIQARFVFLGAGGGALPLLQLSGIPEGKGFGGFPVSGQWLRCDNPEIVKQHQAKVYSQAEVGSPPMSVPHLDTRVVDGKKSLLFGPYAGFSTKFLRHGSFLDLPLSVRPGNILPMLSVARDNMDLTRYLIGQVMQSPEQRLEALRKFYPEARAEDWRLEVAGQRVQIIKKDPKKGGILQFGTELVAAHDGSIAALLGASPGASVTVSIMLGLIERCFPEQARSPEWSAKLKEIFPAREKELESDAELYRSVSSRCSEVLELTAKNDVQAEGGS | soluble |
| MQLQKLVNMFGGDLTRRYGQKVHKLTLHGGFSCPNRDGTIGRGGCTFCNVASFADEAQQHRSIAEQLAHQANLVNRAKRYLAYFQAYTSTFAEVQVLRSMYQQAVSQANIVGLCVGTRPDCVPDAVLDLLCEYKDQGYEVWLELGLQTAHDKTLHRINRGHDFACYQRTTQLARQRGLKVCSHLIVGLPGEGQAECLQTLERVVETGVDGIKLHPLHIVKGSIMAKAWEAGRLNGIELEDYTLTAGEMIRHTPPEVIYHRISASARRPTLLAPLWCENRWTGMVELDRYLNEHGVQGSALGRPWLPPTE | soluble |
| MPNSSILLIFLLTIVILIAPEENHKTYCEVLTSNNSNCTAYCKEKPECSWGRCEGYFKTNCVCYSDKYQFCE | not soluble |
| MGSDKIHHHHHHMIVVKPSPGSAQSIPANANGPKWDVGEAVSQLSWDDLRIIKTLSDCSNRAATAKKLGINVSTVSRRVAQVEKTLGVALFDHRKAGYLLTAEGVELRALAERVELDIVSVTRRVSRAGQGPLGKLRITTSDSLLLYFLTPIIADFKALNEGITIEVLVGNQTLSLARDESDIAVRATKKPTDTLVGRKLANIAWAAYGSVKQAAITDPFAEGQAWVSYSGGLCGLKATSYVECRVPSELISYRTDSVAAASAAIAAGLGFGFLPCMLGDITPGLVRAGPVVQELQDELWLLTHQDIRKSWRVKAFMTFCAAAVADLKPLVEGQQAIPAS | not soluble |
| MMTQQELEKYLWGAATTLRGTIDAGDYKQYIFPLMFFKRICDVYDEEFENALAESDGDLEYAAFAENHHFQVPKGAHWNDVRETTTNIGLALQNAMRAIEKANPDTLEGIFGDASWTNKERLSDAMLTNLIEHYSEQTLNLKNVPDDKLGNAYEYLIKEFADDSGHTAAEFYTNRTVVKLMTMIMAPQPGESVYDPTCGSGGLLLNCALHLKDEGKEYRTLKLYGQEINLLTSAIARMNMFMHGIEEFDIVRGNTLSNPGLLENDELKKFNVILANPPYSIKSWDRKAFESDPYGRNVWGTPPQGCADYAFQQHIQKSLDLGNGRSISLWPHGILFRDAETAMRRKMIEQDQVECVIGLGPNLFYNSPMEACLLITKTNKIESKKDKILFINAVKEVRQDKNIGYLDQVHIDKIFNAYNKFENEDSFAVLVDKQEVLDKKANMAINLYIRPDSLVSSEEACFATAYQEWQQSSGDLKQSMEKLFKELV | not soluble |
| MEKQPNKLIREKSPYLLQHAWNPVDWHPWGEEAFSRARETGRPIFLSSGYSTCHWCHVMEHESFENAETAALLNRHFVPVKLDREEHPDVDHLYMMFVQATTGRGGWPMSVWMTPDLKPFFGGSYFPATERWGMPSFRSVLEHLANLWEHDRPRLLASAGSIMDQLSGLTRP | not soluble |
| MEQQLTIEMIADAFSYDITGFDCGEEALNTFLKEHLKRQHDGQILRGYALVSGDTVPRLLGYYTLSGSCFERGMLPSKTQQKKIPYQNAPSVTLGRLAIDKSVQGQGWGEMLVAHVMRVVWGASKAVGIYGLFVEALNEKAKAFYLRLGFIQLVDENSNLLFYPTKSIEQLFTDDES | not soluble |
| MSLTETILSVGIDLGTSTTQLILSELEIQNMASSFTVPRIVISDKRIIFRSEILFTPILADNLIDVEAIRDFVTKEYANAGIKKEEIGMGAVIITGETARKDNASNVLDAMSGFAGDFVVATAGPDLESIIAGKGAGAHTYAKENNTSVVNLDIGGGTTNLSLFDRGELIDTACLDIGGRLIKVDRETRKITYIAPKIQALIEKRGYPVKLGETTSPENLQPVLGEMVELLKNSVGLGAPNDFYKTIITNKGLKFLTEIECISFSGGVADCISTGALSDPFRYGDIGLLLGKAIAESSLMTEKKYIESVETIRATVVGAGSHTAEISGSTITYTEKIFPVKNIPILKLAKQEEDENMAEVIKEKLSWFKIENEMEHIALAIEGENSPSFQQVTEYAKAICEGMKEPIALGHPLIIITWHDMAKALGQSIFGHLPAGHPLICLDSVKVDNGDYIDIGKPVADGKVLPVVVKTLVFNEGHHHHHH | soluble |
| MEQPFDLAAELAKQPHLLEIAGNLLMKSGPEDYIGAVLCLRGTLYFKKAHTPLVRESLCQCFDEFERLAEPHLTWLWREEPAQGKPLTAYRDTQPLREMMGAMDEDDHLSFCYTSGKKSRDAGAWLFDIYGKRSWQAKMGHDLSVLEFSVPLLYQERQPLDFLQLFIDFARRLEPEQGYAGHAYNLSPTSWDNDEPSEAFMAARMPGLDVGTACLLANTPEFKPTRIKTVSWLTLLNNERLALAGGLDALRAQLPSSHFAFYRYGDGVVIQAGAYPYIAGDAEDSRPAPYVLLNHALKGIRYETIGSLHGGSHDGELRLVGWAADQWLKRLDVEDSEIPRWCDKLLSAEPYLDATNTLPERL | not soluble |

From the DeepSol protein solubility set
